{"source": "paper PMC4660977", "about": "(Molecular pharmaceutics, 2015)", "key": {"[1]": {"target": "intrinsic factor (IF) (human) (UniProt P27352)", "sequence (P27352 19-417)": "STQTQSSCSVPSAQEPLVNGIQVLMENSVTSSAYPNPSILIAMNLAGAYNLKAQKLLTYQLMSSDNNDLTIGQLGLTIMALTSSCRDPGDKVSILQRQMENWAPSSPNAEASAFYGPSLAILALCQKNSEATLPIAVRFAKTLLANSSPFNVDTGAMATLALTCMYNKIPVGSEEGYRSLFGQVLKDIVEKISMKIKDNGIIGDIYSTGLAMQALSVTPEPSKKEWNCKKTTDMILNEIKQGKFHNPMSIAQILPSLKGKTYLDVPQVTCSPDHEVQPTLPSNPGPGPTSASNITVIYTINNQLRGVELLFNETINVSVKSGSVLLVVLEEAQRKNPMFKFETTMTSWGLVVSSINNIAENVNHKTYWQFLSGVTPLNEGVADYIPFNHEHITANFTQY", "test": "radioligand binding"}, "[2]": {"target": "glucagon-like peptide-1 receptor (GLP-1R) (UniProt P43220)", "sequence (P43220 24-463)": "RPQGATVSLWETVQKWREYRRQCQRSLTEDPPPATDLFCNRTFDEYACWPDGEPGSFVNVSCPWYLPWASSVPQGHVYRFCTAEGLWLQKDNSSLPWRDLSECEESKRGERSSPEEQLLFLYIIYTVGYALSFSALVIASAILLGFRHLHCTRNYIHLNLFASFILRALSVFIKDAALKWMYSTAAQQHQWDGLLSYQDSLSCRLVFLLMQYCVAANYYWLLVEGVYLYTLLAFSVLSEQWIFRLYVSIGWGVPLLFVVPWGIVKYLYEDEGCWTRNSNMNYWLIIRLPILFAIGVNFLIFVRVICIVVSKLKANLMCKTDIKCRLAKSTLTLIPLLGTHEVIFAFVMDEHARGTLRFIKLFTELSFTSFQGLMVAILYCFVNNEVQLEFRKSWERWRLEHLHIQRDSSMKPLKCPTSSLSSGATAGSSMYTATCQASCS"}, "[3]": {"target": "GLP-1R (Homo sapiens, UniProt P43220)", "sequence (P43220 24-463)": "as above", "test": "GLP-1R agonism, AKAR3 FRET reporter assay in HEK-GLP-1R cells", "assay_type": "cell-based", "details": "undigested"}, "[4]": {"target": "T1, meprin β (Homo sapiens, UniProt Q16820)", "T1 sequence (Q16820 62-701)": "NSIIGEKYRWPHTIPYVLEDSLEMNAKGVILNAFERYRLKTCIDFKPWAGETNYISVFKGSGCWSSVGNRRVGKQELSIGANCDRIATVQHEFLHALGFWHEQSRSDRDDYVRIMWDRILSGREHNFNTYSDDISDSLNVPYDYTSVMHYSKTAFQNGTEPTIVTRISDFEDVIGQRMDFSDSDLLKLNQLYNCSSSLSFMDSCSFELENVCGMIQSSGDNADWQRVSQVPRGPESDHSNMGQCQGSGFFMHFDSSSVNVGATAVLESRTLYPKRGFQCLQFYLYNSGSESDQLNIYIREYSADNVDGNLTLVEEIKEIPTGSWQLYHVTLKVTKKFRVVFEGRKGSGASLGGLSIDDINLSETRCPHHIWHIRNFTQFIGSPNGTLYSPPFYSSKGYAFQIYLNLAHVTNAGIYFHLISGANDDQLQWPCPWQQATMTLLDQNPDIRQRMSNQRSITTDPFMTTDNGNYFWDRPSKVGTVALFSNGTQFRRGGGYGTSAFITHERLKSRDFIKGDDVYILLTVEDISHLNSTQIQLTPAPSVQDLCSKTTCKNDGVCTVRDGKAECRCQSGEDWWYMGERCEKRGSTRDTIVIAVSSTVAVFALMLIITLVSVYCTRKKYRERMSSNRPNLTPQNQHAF", "test": "Meprin β digestion, remaining function at GLP-1R", "assay_type": "in vitro ADME", "details": "meprin β concentrations greater than 3 µg/mL; 30 min, 100 nM; AKAR3 FRET"}}}
{"substance": "B12-Ex-4 conjugate (4) (from UniProt P26349 48-87) (peptide)", "values": [{"measurement": "IF binding (constant not named)", "setting": "[1]", "value": 6.8, "unit": "nM"}]}
{"substance": "IF-B12-Ex-4 complex (IF-4) (from UniProt P27352 19-417)", "values": [{"measurement": "% change in FRET at 100 nM (AKAR3 in HEK-GLP-1R cells)", "setting": "[2]", "value": -12, "unit": "%"}]}
{"substance": "(AzidoK12)-Ex-4 [Compound 1]", "values": [{"measurement": "% change in FRET at 100 nM", "setting": "[3]", "value": "−12 ± 0.01", "unit": "%"}, {"measurement": "function after meprin β digestion", "setting": "[4]", "value": "No function"}]}
